According to the RNAGym collection of RNA variant scans (doi:10.1073/pnas.2313332121):
Fewer inactive variants are shown than the library holds.

B1: TPR 5TU (parent)
chain: GGAUCUUCUCGAUCUAACAAAAAAGACAAAUCUGCCACAAAGCUUGAGAGCAUCUUCGGAUGCAGAGGCGGCAGCCUUCGGUGGCGCGAUAGCGCCAACGUUCUCAACUAUGACACGCAAAACGCGUGCUCCGUUGAAUGGAGUUUAUCAUG

Variants of: B1
Test: polymerase ribozyme fitness, log enrichment relative to wild type (log ratio); higher = more active; in vitro selection for triplet polymerase activity
Outline: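 Fitness measures genotype enrichment against wild-type enrichment on a logarithmic scale, with inverse-variance-weighted averaging of replicates. The logarithm is base 2, and genotypes were kept only with ≥10 input reads and ≥1 read per output in Illumina sequencing. The sequenced libraries came from one triplicate in vitro selection round, including frozen incubation at −7 °C, of PCR-built, transcribed mutant libraries of each subunit of a heterodimeric triplet polymerase ribozyme.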

Variant | polymerase ribozyme fitness (log ratio)
A30G A47C G48A | ≤ -4.2
U33C A52G G70A G92A A150G | -3.87
A39C A89C A119U A120G U130A | ≤ -4.2
U6G A16U G58A G141U | -1.34
U78C | -0.318
C85A C87U A119U | ≤ -4.2
A16G C18U A30U C35U U55A G71C C93U A97C C116A G141U | ≤ -4.2
A17G G133U | -3.47
C38U U145A | 0.631
A23G G92U | -3.31
G58C U135G | -3.82
G11U U53A G65A A73U G83C U144A | ≤ -4.2
A52C G84A | -1.32
A73U C96U C108G G141A U146G | ≤ -4.2
G11C A22U A30G A37C A91G C93A A98C C118G | ≤ -4.2
A24G A66G C85A A91U U127C G133A U134A | ≤ -4.2
C5A C57U G81C G94C C108A G143C | ≤ -4.2
U61A G65A G81U C85U U102G | ≤ -4.2
U6G G59A G92A C95A C105U | -4.19
C5U A37U C69U C95U | -1.02
G50A C57U C85U G128A | ≤ -4.2

Variant | polymerase ribozyme fitness (log ratio)
A97U G117U | -1.25
A40G C43G A64C | ≤ -4.2
U77A C85U A91G G133C A142G | ≤ -4.2
A12U C27A A52C G71C C105U | ≤ -4.2
A28C A52U C87U | ≤ -4.2
U9A U55G U78G G143C | ≤ -4.2
A47C A119G | 0.0948
U15A | -0.182
A40U C75G C85G U135G G140U | ≤ -4.2
U55G G83A C103U U135A | -2.23
A49C A52G G58C G84A C131G G133C U145A | ≤ -4.2
A30G G80A | -3.66
C14G C38A A60G U77A U78C C87G C125A U139G | ≤ -4.2
C125U G141C | -3.85
C10U U15C A29U C95U | ≤ -4.2
A21U A39C C57U A97G | -2.62
U31A A52C A91U | -4.06
A24U A52G | 0.771
C96A A137U | -3.87
A19C G65C C69G C85U C87G U102G A121G G124A U139G | ≤ -4.2
C85U A150C G152U | -3.38

Variant | polymerase ribozyme fitness (log ratio)
A24C A29G C51U C95G C96U C114A U146C | ≤ -4.2
U90A G92C A142G | ≤ -4.2
G94A G124A A150U | 0.987
A47C A52G G68C A91C | ≤ -4.2
C5U G84A A150C | ≤ -4.2
U13G A47G U55A C87U C96U U139G | ≤ -4.2
A19U A40G G124A | -4.11
C35U C43G C93A C103G | ≤ -4.2
U9G A17U G94A | ≤ -4.2
A73U C99A C103G C114U C123G | ≤ -4.2
G88C C93G U102C G124A | ≤ -4.2
A91G C108U | -3.97
C18A A20U C69A G88U C93G C99G U111A G124A G140C | ≤ -4.2
U15C G34C C57A G84U A98U | -2.33
U9A C18G A52G G58C A138G | ≤ -4.2
A106C C114A G140C G141C | ≤ -4.2
C8A C85U | -2.6
A16C G59A C76A C85G U139A | ≤ -4.2
A20U A28C G83U C87A C99G G140A | ≤ -4.2
A30U A49C A60U U77C U148A | ≤ -4.2
U6A C85U G140C | -3.99

Variant | polymerase ribozyme fitness (log ratio)
C38A C85G G86U | ≤ -4.2
A17G A39G U56A C85G A115G | -3.92
G92U C99U U144G | 0.0398
C32A U55A C76U A89G G92U A119G | ≤ -4.2
A106G A142C | -0.922
G50U A64G C103G C125A A142G | ≤ -4.2
C14A A41U C76G C87A G92C U144G | ≤ -4.2
C72A C85A | -3.85
A3C U4A U56G C57U C132A | -4.08
U53G A97U | -2.68
A37C C38G C85U | -1.28
U45G C93A C95U | -3.98
A29C A52C U53A C54U C75G C129A | ≤ -4.2
U6C U61A C85U A97C A120G | -3.12
C8A A52C C75U C95G C96U U109A | ≤ -4.2
G80A C132U | -0.678
C5U G92A | -1.32
A41C U55C C85G C108U G126A | ≤ -4.2
C116U G124A A142G | -2.45
G34U C76U A119U | -3.19
A16G A19C G80C C87A A150U | ≤ -4.2
